In publication PMC4167924 one finds percent of PAM-1 co-immunoprecipitated data, which are given here for two molecules.

For this experiment, the target named is adaptor protein 1A complex (AP-1A; γ/β1/μ1A/σ1), endogenous, mouse (mouse (endogenous in pituitary and in AtT-20)) (UniProt P22892). Kind of experiment: co-IP.
Sequence of UniProt P22892 (P22892 whole entry, chain 1 of 4): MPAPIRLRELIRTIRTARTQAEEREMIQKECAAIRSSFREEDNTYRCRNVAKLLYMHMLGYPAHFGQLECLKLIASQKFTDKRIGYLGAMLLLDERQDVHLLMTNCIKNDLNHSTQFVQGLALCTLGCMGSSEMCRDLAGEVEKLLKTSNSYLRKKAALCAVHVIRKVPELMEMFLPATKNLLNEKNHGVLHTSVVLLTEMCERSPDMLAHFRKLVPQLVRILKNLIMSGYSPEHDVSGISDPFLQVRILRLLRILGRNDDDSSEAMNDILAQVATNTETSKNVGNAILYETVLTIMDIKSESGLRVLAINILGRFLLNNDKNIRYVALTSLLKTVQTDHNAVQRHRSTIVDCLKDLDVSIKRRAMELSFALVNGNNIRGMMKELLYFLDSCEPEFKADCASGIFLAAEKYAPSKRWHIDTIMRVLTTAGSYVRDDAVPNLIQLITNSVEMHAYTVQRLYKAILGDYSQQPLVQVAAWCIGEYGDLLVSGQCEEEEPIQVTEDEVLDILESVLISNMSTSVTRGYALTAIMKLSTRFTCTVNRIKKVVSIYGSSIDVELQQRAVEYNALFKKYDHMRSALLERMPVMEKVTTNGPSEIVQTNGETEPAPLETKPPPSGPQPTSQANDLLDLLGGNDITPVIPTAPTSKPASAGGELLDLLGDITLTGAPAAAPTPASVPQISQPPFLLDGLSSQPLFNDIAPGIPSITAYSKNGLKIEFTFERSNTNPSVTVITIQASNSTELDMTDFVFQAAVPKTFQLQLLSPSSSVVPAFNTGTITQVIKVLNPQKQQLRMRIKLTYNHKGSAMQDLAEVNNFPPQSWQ
Sequence of UniProt P22892 (O35643 whole entry, chain 2 of 4, further chain): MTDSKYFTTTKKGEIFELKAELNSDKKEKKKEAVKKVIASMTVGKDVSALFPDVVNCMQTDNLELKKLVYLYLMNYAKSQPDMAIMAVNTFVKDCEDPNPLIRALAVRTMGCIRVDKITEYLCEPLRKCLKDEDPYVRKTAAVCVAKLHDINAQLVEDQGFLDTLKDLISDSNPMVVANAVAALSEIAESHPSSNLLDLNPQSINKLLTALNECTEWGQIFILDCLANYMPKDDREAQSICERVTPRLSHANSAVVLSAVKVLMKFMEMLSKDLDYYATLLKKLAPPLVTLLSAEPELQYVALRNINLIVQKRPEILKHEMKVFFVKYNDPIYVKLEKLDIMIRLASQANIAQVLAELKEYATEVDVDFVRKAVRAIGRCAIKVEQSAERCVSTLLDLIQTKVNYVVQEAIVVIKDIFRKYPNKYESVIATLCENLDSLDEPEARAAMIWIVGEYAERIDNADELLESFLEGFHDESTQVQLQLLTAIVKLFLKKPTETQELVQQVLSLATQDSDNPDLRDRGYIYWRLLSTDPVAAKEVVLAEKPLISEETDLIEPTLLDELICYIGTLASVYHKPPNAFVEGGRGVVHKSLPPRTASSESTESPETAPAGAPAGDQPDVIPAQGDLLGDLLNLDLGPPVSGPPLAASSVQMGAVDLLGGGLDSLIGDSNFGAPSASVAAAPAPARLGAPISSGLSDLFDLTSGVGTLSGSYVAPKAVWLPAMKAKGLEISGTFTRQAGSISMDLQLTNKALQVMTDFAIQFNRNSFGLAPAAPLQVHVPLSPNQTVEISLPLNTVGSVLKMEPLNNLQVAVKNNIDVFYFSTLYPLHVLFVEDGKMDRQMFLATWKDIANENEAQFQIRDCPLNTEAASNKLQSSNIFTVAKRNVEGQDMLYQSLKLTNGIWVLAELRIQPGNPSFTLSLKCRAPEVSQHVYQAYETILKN
Sequence of UniProt P22892 (P35585 whole entry, chain 3 of 4, further chain): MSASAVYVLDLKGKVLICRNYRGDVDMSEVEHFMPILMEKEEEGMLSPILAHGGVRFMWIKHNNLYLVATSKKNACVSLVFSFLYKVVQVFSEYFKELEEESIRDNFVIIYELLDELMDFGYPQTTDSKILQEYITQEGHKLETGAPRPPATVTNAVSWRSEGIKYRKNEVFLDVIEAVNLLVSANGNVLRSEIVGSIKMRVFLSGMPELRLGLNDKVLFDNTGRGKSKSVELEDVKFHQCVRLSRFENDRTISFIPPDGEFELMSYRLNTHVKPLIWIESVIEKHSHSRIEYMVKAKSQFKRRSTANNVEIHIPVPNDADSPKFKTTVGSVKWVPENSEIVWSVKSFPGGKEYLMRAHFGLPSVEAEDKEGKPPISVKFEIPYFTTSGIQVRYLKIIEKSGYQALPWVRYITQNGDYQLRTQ
Sequence of UniProt P22892 (P61967 whole entry, chain 4 of 4, further chain): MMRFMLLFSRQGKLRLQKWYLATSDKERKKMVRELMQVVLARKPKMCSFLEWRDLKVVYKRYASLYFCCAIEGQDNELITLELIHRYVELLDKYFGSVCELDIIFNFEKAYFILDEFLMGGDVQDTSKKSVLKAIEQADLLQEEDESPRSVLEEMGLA

B1: PAM-1, stably expressed in AtT-20 cells (natural protein)
chain: FKETTRSFSNECLGTIGPVTPLDASDFALDIRMPGVTPKESDTYFCMSMRLPVDEEAFVIDFKPRASMDTVHHMLLFGCNMPSSTGSYWFCDEGTCTDKANILYAWARNAPPTRLPKGVGFRVGGETGSKYFVLQVHYGDISAFRDNHKDCSGVSVHLTRVPQPLIAGMYLMMSVDTVIPPGEKVVNADISCQYKMYPMHVFAYRVHTHHLGKVVSGYRVRNGQWTLIGRQNPQLPQAFYPVEHPVDVTFGDILAARCVFTGEGRTEATHIGGTSSDEMCNLYIMYYMEAKYALSFMTCTKNVAPDMFRTIPAEANIPIPVKPDMVMMHGHHKEAENKEKSALMQQPKQGEEEVLEQGDFYSLLSKLLGEREDVHVHKYNPTEKTESGSDLVAEIANVVQKKDLGRSDAREGAEHEEWGNAILVRDRIHRFHQLESTLRPAESRAFSFQQPGEGPWEPEPSGDFHVEEELDWPGVYLLPGQVSGVALDSKNNLVIFHRGDHVWDGNSFDSKFVYQQRGLGPIEEDTILVIDPNNAEILQSSGKNLFYLPHGLSIDTDGNYWVTDVALHQVFKLDPHSKEGPLLILGRSMQPGSDQNHFCQPTDVAVEPSTGAVFVSDGYCNSRIVQFSPSGKFVTQWGEESSGSSPRPGQFSVPHSLALVPHLDQLCVADRENGRIQCFKTDTKEFVREIKHASFGRNVFAISYIPGFLFAVNGKPYFGDQEPVQGFVMNFSSGEIIDVFKPVRKHFDMPHDIVASEDGTVYIGDAHTNTVWKFTLTEKMEHRSVKKAGIEVQEIKEAEAVVEPKVENKPTSSELQKMQEKQKLSTEPGSGVSVVLITTLLVIPVLVLLAIVMFIRWKKSRAFGDHDRKLESSSGRVLGRFRGKGSGGLNLGNFFASRKGYSRKGFDRVSTEGSDQEKDEDDGTESEEEYSAPLPKPAPSS
Regarding B1, the percent of PAM-1 co-immunoprecipitated was determined as 2%.

B2: peptidylglycine α-amidating monooxygenase-1 (PAM-1), endogenous in mouse pituitary (natural protein)
chain: FKETTRSFSNECLGTTRPITPIDSSDFTLDIRMPGVTPKESDTYFCMSMRLPVDEEAFVIDFKPRASMDTVHHMLLFGCNMPSSTGSYWFCDEGTCTDKANILYAWARNAPPTRLPKGVGFRVGGETGSKYFVLQVHYGDISAFRDNHKDCSGVSLHLTRVPQPLIAGMYLMMSVNTVIPPGEKVVNSDISCHYKMYPMHVFAYRVHTHHLGKVVSGYRVRNGQWTLIGRQSPQLPQAFYPVEHPVDVAFGDILAARCVFTGEGRTEATHIGGTSSDEMCNLYIMYYMEAKHAVSFMTCTQNVAPDMFRTIPEEANIPIPVKSDMVMIHGHHKETENKEKSALIQQPKQGEEEAFEQGDFYSLLSKLLGEREDVVHVHKYNPTEKTESGSDLVAEIANVVQKKDLGRSDAREGAEHEEGGNAILVRDRIHKFHRLESTLRPAESRALSFQQPGEGPWEPELAGDFHVEEALEWPGVYLLPGQVSGVALDSKNNLVIFHRGDHVWDGNSFDSKFVYQQRGLGPIEEDTILVIDPNKAEILQSSGKNLFYLPHGLSIDTDGNYWVTDVALHQVFKLEPRSKEGPLLVLGRSMQPGSDQNHFCQPTDVAVEPSTGAVFVSDGYCNSRIVQFSPSGKFITQWGEESSGSSPKPGQFSVPHSLALVPHLNQLCVADRENGRIQCFKTDTKEFVREIKHASFGRNVFAISYIPGFLFAVNGKPYFGDQEPVQGFVMNFSSGEIIDVFKPVRKHFDMPHDIVASEDGTVYIGDAHTNTVWKFTLTESRLEVEHRSVKKAGIEVPEIKEAEAVVEPKVKNKPTSSELQKMQEKKKLIKDPGSGVPVVLITTLLVIPVVVLLAIAMFIRWKKSRAFGDHDRKLESSSGRVLGRLRGKGSSGLNLGNFFASRKGYSRKGFDRVSTEGSDQEKDEDDGSESEEEYSAPLPTPAPSS
On to B2, for which the percent of PAM-1 co-immunoprecipitated is 3%.
